These results are taken from patent US20140017790A1, “CONTROL AGENT FOR CONTROLLING UNDIFFERENTIATED STATE AND USE THEREOF” (RIKEN, priority 2011, published 2014).

Holding throughout (type): cell-based
One experiment relates to mouse iPS cells. Nature of the experiment: flow cytometry analysis of Nanog-GFP positive cell population. The protocol: In the present example, the above-described DMEM to which the LIF and mouse recombinant CCL2 (MCP-1, #479-JE-010, R&D Systems) had been added was used. In the medium, the final concentration of the LIF was set to 25 units/ml, and the concentration of the recombinant CCL2 was set to 500 ng/ml. The amount of the medium to be added to a 12-well dish was set to 1 ml per well. On the other hand, in a comparative example, the above-described DMEM containing the LIF but not containing the CCL2 was used. The final concentration of the LIF was set to 25 units/ml.
The mouse iPS cells cultured under feeder free conditions were cultured in the medium of the example and the medium of the comparative example, respectively. The mouse iPS cells were seeded in the 12-well dish at a density of 6×10^4 cells/well.
The flow cytometry analysis was carried out in the following manner. After the mouse iPS cells had been cultured in the above described manner, the cells were collected from the wells, and were suspended again in an ES medium containing 25 units/ml of LIF. As the ES medium, a DMEM (containing glucose at a high concentration and containing no sodium pyruvate) containing 15% FBS, 0.1 mmol/l NEAA, and 0.1 mmol/l 2-Mercaptoethanol was used. Then, this cell suspension was applied to a flow cytometer (trade name: BD FACSAria (registered trademark) II, Becton, Dickinson and Company), and analyzed in accordance with the protocol of the flow cytometer. At this time, as a cell population having pluripotency, i.e., undifferentiated cell population, a Nanog-GFP-positive region sorted out based on FITC-A>10^4 was monitored. The raw data was analyzed by a program (FlowJo, ver. 7), and plotted in the form of density plot. The iPS cells were produced from MEF of a modified mouse with a GFP protein being incorporated in the promoter region of the Nanog gene. Thus, when the cells expressed the Nanog gene, it means the cells were Nanog-GFP positive, so that the GFP was produced and this GFP was detected by the FACS. […]

For experiment [1], the system named is human iPS cells. Nature of the experiment: phase-contrast morphology of human iPS cells with JAK or PI3K inhibitor. The settings on record: inhibitor not added (DMSO added), 6 days; bFGF(+)/CCL2(-) or bFGF(-)/CCL2(+). The protocol:
As a JAK inhibitor, a JAK inhibitor I (Merck) was used. As PI3K inhibitor, the same LY294002 as used in Example 4 was used. Human iPS cells were cultured for 6 days under feeder conditions in the same manner as in the above item (1), except that not only the CCL2 but also the JAK inhibitor or the PI3K inhibitor further was added to the medium. In the medium, the concentration of the Jak inhibitor was set to 10 ng/ml, and the concentration of the PI3K inhibitor was set to 5 ng/ml.
Furthermore, as a control, the cells were cultured in the same manner as in the above using the following media, respectively: a medium containing bFGF instead of the CCL2 and containing DMSO (5 ng/ml) instead of the inhibitor; and a medium containing bFGF (5 ng/ml) instead of the CCL2 and containing the inhibitor.
The phase-contrast micrographs show the results obtained under the conditions of, from the above: the inhibitor not added (DMSO added); the JAK inhibitor added; and the PI3K inhibitor added.

Experiment [2] has as its system human iPS cells. Nature of the experiment: culture of human iPS cells in feeder free media, EB plating, cell adhesion. From the text:
As undifferentiated cells, the same human iPS cells as used in Example 7 were used. As CCL2, the mouse recombinant CCL2 used in the item (1) of Example 2 was used. As feeder free media, the following three kinds of media were provided by adding or not adding the CCL2, LIF and bFGF to the medium for human stem cells used in Example 8. Specifically, the media used were as follows: the medium with CCL2 not added (−)/LIF not added (−)/bFGF added (+); the medium with CCL2 added (+)/LIF not added (−)/bFGF not added (−); and the medium with CCL2 added (+)/LIF added (+)/bFGF not added (−). In each medium, the concentration of the LIF was set to 50 units/ml, the concentration of the CCL2 was set to 500 ng/ml, and the concentration of the bFGF was set to 5 ng/ml. Then, the human iPS cells were cultured for 6 days using each medium, and EBs were produced. Thereafter, the thus-produced EBs were seeded in gelatin coated dishes so that each gelatin coated dish contained one EB, and cultured for 5 days in a medium (DMEM) containing 20% FBS.
The photographs in FIG. 20 show the cell morphologies of the EBs on the 5th day from the plating.

B1: CCL2: mouse recombinant CCL2 (MCP-1, #479-JE-010, R&D Systems); in Examples 1, 3, 4(1), 5 mouse CCL2 (SEQ ID NO: 3) overexpressed from Ccl2 expression vector (protein, listed as Mus musculus)
chain: MQVPVMLLGLLFTVAGWSIHVLAQPDAVNAPLTCCYSFTSKMIPMSRLESYKRITSSRCPKEAVVFVTKLKREVCADPKKEWVQTYIKNLDRNQMRSEPTTLFKTASALRSSAPLNVKLTRKSEANASTTFSTTTSSTSVGVTSVTVN
As for B1, the “proportion of the Nanog-GFP positive mouse iPS cells” value is “increased” in the experiment with mouse iPS cells (CCL2 500 ng/ml, LIF 25, 50, 100, 500 and 1000 units/ml, versus no CCL2); 67.3% in the experiment with mouse iPS cells (recombinant CCL2 500 ng/ml + LIF 25 units/ml, feeder free, 24 hours, comparative medium (LIF only) 37.6%). The “number of undifferentiated cells having pluripotency (Nanog-GFP positive)” value with mouse iPS cells (recombinant CCL2 500 ng/ml added to PI3K inhibitor 5 ng/ml + LIF 25 units/ml) is reported as “further increase”. For the same molecule, in the experiment with human iPS cells [1], the “undifferentiation potency, cell morphology” value was “little differentiated cells”. The cell adhesion result was “observed” in the experiment with human iPS cells [2] (CCL2 500 ng/ml + LIF 50 units/ml, bFGF not added) and “observed” in the experiment on human iPS cells [2] (LIF not added, CCL2 500 ng/ml alone or bFGF 5 ng/ml alone). Further, the colony growth entry in the experiment on human iPS cells [2] (CCL2 500 ng/ml + LIF 50 units/ml, bFGF not added, culture for 5 days) is recorded as “observed”.
